Laboratory results from patent US11319374B2, “Inhibitors of prototypic galectin dimerization and uses thereof” (INSTITUT NATIONAL DE LA RECHERCHE SCIENTIFIQUE, priority 2015, dated 2022).

Experiments:
[1] = target: T1, recombinant human Gal-1 (hGal-1) (Homo sapiens, UniProt P09382); assay: hGal-1 dimer disruption (galectin selectivity control), low-SDS Western blotting; type: biochemical; settings: recombinant hGal-1, FIG. 2C
T1 construct: made in house; host or cells: E. coli BL21 (DE3)
Description: Production of recombinant hGal-7 and hGal-1. Human Gal-7 cDNA was cloned into pET-22b(+) using Ndel and HindIII restriction enzymes. Human pET-Gal-1 vector was generously donated by Dr. S. Sato (McGill University, QC, Canada). The proteins were produced in E. coli BL21 (DE3) cells at 37° C. Isopropyl p-D-1-thiogalactopyranoside (IPTG) (1 mM) was added to the bacterial culture at OD600nm=0.6-0.7 and then incubated for 4 h at 37° C. to allow protein production. Bacterial pellets were resuspended in lysis buffer (0.7 mg/mL lysozyme, 10 mM Tris pH 8, 100 mM NaCl, 1 mM EDTA, 1 mM DTT and a protease inhibitor cocktail) and then incubated for 1 h at 37° C. prior to centrifugation for 30 min at 15,000×g (4° C.). The supernatant was then filtered with 500 mL bottle top filter ([…]) (Corning®, New York, N.Y., USA) and then ran through a lactose-agarose column (Sigma®, St. Louis, Mo., USA). The protein was eluted in 1 mL fractions with 150 mM lactose solution. Purified fractions were analyzed by SDS-PAGE. […]
To determine whether these peptides could inhibit the formation of the hGal-7 homodimer, recombinant hGal-7 (0.5 μM) was incubated with increasing concentrations of hGal-7(13-25), hGal-7(85-102), hGal-7(95-108) or hGal 7(129-135) and the formation of homodimers was measured. […]

Jurkat T cells [2] = assay: hGal-7-induced apoptosis of Jurkat T cells, PARP-1 cleavage by Western blotting; type: cell-based; settings: 4 h at 37° C., serum-free RPMI, FIG. 5A
Description: Western blotting. For the apoptosis tests, whole-cell extracts were homogenized and resuspended in RIPA buffer (Thermo Fisher Scientific®, Rockford, Ill., USA) containing protease inhibitors (Roche®, Laval, QC, Canada). Equal amounts of whole-cell extracts (25 μg) were separated on SDS-PAGE and transferred onto nitrocellulose membranes (Bio-Rad Laboratories®). The membranes were first blocked with 5% milk [w/v] in TBS/0.5% Tween® 20 [v/v] for 1 h at room temperature and subsequently blotted overnight in a solution of TBS containing 3% BSA [w/v] and 0.5% Tween 20 [v/v]. The following antibodies were used: a rabbit anti-Poly-(ADP-ribose) polymerase (PARP)-1 (p25) polyclonal antibody (1:5000; Epitomics®, Burlingame, Calif., USA) and a mouse anti-β-actin (1:10000; Sigma-Aldrich®, St-Louis, Mo., USA). Secondary antibodies consisted of horseradish peroxidase-conjugated donkey anti-rabbit (GE Healthcare®, Buckinghamshire, England) and sheep anti-mouse (GE Healthcare®) IgG. […]
It was thus tested whether hGal-7(129-135) could modulate the binding of hGal-7 on Jurkat T cells, a cell model that is commonly used to test the pro-apoptotic activity of galectins. For this purpose, recombinant hGal-7 was labeled with fluorescein isothiocyante (FITC) and its binding on the surface of Jurkat T cells was measured by flow cytometry in absence or presence of increasing concentrations of hGal-7(129-135). […]

Jurkat T cells [3] = assay: Apoptosis/toxicity of peptide alone in Jurkat T cells, Annexin V/PI; type: cell-based
Description: FIG. 8A: Flow cytometry histogram showing propidium iodide (PI) (FL3) labeling of Jurkat T cells without or with 200 μM of hGal-7(129-135). FIG. 8B: Histogram showing the average percentage of Annexin-V (AV) positive Jurkat T cells in the presence of increasing concentrations of […]. FIG. 8C: Flow cytometry histogram showing PI (FL3) labeling of Jurkat T cells without or with 200 μM of PACAP28-38 FIG. 8D: Histogram showing the average percentage of AV-positive Jurkat T cells in the presence of increasing concentrations of PACAP28-38. The percentage of cell death was obtained as described above. Error bars represent standard deviation. Significance was calculated with respect to AF samples. Results are representative of three independent experiments.
Apoptosis assays with Annexin V/PI staining. Apoptosis was measured by flow cytometry using FITC-labeled Annexin V (Biolegend®, San Diego, Calif., USA) and propidium iodide. Briefly, the corresponding dilutions of recombinant hGal-7 and hGal-7(129-135) peptides were pre-incubated for 1 h at 4° C. in serum-free RPMI 1640 medium. 2.5×10^5 Jurkat cells were then harvested in the same medium and incubated with their corresponding dilutions at 37° C. for 4 h. Cells were washed once in PBS and once in binding buffer (0.01 M HEPES, 0.14 M NaCl, 2.5 mM CaCl2, pH 7.4). Cells were then incubated for 15 min with Annexin V in the dark at room temperature. A total of 400 μL of binding buffer containing 0.25 μg/mL propidium iodide was added to the cells before analysis by flow cytometry.

T1 sequence (P09382 2-135 limits assumed): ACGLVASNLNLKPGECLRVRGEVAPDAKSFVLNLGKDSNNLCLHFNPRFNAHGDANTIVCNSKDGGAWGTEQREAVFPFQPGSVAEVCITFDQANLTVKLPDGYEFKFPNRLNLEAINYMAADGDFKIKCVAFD

H-Leu-Asp-Ser-Val-Arg-Ile-Phe-NH2 (H-LDSVRIF-NH2; listed as Homo sapiens) [hGal-7(129-135), peptide corresponding to residues 129-135 of hGal-7]
effect on hGal-1 dimer [1]: No such effect was observed | inhibition of hGal-7-induced apoptosis, PARP-1 cleavage (Jurkat T cells [2]): inhibited the ability of hGal-7 to induce apoptosis in Jurkat T cells | toxicity in Jurkat T cells (Jurkat T cells [3]; PI labeling at 200 μM, Annexin V at increasing concentrations, FIGS. 8A to 8D): do not induce toxicity in Jurkat T cells | induction of apoptosis by peptide alone (Jurkat T cells [3]; peptide alone, FIG. 8): did not induce apoptosis in Jurkat T cells
